From patent US20250026827A1 (Alector, published 2025) come the findings set out here.

The target in experiment [1] is T1, human SIRPβ1 domain 1 (D1) Fc fusion (human, UniProt O00241 30-148).
T1 construct: Made in HEK293/T cells with a heterologous signal peptide; also called Human SIRPβ1 D1-Fc; Human SIRPβ1-Fc; not shown: C-terminal human IgG1 Fc
Nature of the experiment: Octet, Fab monovalent. (In general: In BLI a coated tip is dipped into the sample, and binding shifts an interference pattern.)

Another experiment addresses T2, Human SIRPβ HIS (human, UniProt O00241 30-148, limits assumed).
T2 construct: detected with streptavidin, so biotinylated; also called recombinant human SIRPβ1; human SIRPβ1 monomer
Nature of the experiment: MSD-SET, Fab monovalent.

Another experiment addresses T3, mouse SIRPα D1-Fc (mouse, UniProt P97797 32-150, limits assumed).
T3 construct: domain: D1
T3 sequence (looked up): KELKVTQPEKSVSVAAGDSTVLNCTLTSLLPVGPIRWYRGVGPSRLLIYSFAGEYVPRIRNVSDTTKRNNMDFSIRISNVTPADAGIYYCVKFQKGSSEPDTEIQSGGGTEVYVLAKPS
Description: Octet.

The target of experiment [2] is T4, human SIRPα on cells (human, UniProt P78324 31-504).
T4 construct: Whole entry
Nature of the experiment: flow cytometry.

The target in experiment [3] is T5, mouse SIRPβ1 on CHO cells (mouse).
T5 construct: Whole entry
T5 chain: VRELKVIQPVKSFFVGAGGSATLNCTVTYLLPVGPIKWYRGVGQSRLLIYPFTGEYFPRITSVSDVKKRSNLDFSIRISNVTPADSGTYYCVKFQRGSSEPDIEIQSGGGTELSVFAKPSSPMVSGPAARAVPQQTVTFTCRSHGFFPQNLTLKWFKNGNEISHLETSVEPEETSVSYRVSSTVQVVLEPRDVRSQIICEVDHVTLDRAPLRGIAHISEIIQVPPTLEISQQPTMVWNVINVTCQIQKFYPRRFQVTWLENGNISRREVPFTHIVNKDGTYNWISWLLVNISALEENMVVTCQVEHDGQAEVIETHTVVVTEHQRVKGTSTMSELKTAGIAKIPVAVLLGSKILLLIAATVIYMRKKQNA
Nature of the experiment: flow cytometry. Background: A flow cytometer gives signals particle by particle.

The target of experiment [4] is T6, mouse SIRPα on cells (mouse, UniProt P97797 32-513).
T6 construct: whole, on cells
T6 sequence (looked up): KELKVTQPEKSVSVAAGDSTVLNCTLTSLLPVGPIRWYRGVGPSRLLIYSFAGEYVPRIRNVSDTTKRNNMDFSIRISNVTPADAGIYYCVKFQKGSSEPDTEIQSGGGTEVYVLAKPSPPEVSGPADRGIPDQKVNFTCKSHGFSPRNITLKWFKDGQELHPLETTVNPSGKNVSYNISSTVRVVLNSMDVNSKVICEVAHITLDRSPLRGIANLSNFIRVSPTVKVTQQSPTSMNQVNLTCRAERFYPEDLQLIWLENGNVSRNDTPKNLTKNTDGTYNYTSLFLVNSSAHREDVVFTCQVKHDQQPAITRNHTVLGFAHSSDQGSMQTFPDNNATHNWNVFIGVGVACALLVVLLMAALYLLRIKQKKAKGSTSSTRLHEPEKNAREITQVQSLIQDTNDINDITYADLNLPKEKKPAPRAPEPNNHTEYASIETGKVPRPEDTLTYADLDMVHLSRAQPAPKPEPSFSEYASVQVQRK
Nature of the experiment: flow cytometry.

Experiment [5] addresses T7, human SIRPβ1 isoform 1 on cells (human, UniProt O00241 30-398).
T7 construct: On CHO cells (low level), on BWZ/BW5147.G.1.4 cells (reporter cells co-express human DAP12) or on primary human myeloid cells; also called huSIRPβ1; BWZ-huSIRPβ1
Nature of the experiment: flow cytometry.

Experiment [6] has as its target T4, human SIRPα on cells. Description: flow cytometry. The source holds these as a separate data set.
Experiment [7] concerns the target T5, mouse SIRPβ1 on CHO cells. Nature of the experiment: flow cytometry.
Experiment [8] deals with T6, mouse SIRPα on cells. Nature of the experiment: flow cytometry. This is another data set of the same source.
Experiment [9] addresses T7, human SIRPβ1 isoform 1 on cells. Description: flow cytometry. The source holds these as a separate data set.
Description: (§1) Cells were then washed twice and incubated in 100 ul FACS buffer containing 0.5 μg/ml PE-conjugated secondary antibody for 30 minutes on ice. Cells were washed twice in cold FACS buffer and acquired on a BD FACS Canto. Data analysis and calculation of mean fluorescence intensity (MFI) values or 00 positive cells was performed with FlowJo (TreeStar) software version 10.0.7.
(§2) Given the high sequence similarity between receptors of the SIRPβ family, anti-SIRPβ1 antibodies were also screened for cross-reactivity to human SIRPα.
For experiment [10], the target named is T4, human SIRPα on cells. Nature of the experiment: flow cytometry. This is another data set of the same source.
Description: as §1, §2
For experiment [11], the target named is T5, mouse SIRPβ1 on CHO cells. Description: flow cytometry.
Description: as §1, §2
The target of experiment [12] is T1, human SIRPβ1 domain 1 (D1) Fc fusion. Description: Octet, IgG avid.
In experiment [13] the target is T8, human SIRPα domain 1 (D1) Fc fusion (human, UniProt P78324 32-149).
T8 construct: also called human SIRPα D1-Fc; Human SIRPα Fc; not shown: C-terminal human IgG1 Fc
Nature of the experiment: Octet, IgG avid.

For experiment [14], the target named is T9, Soluble, human SIRPβ1-Fc isoform 1 (O00241) (human, UniProt O00241 30-371, limits assumed).
T9 construct: Whole entry named; also called human SIRPβ1 isoform 1
Description: ELISA, antigen coated. Background: An ELISA detects its analyte on a solid surface through an enzyme-linked reagent.
Description: Recombinant antigen based on the sequence of SIRPβ1 isoform 1 was used for selecting anti-SIRPβ1 antibodies from yeast library pools. To ascertain if the selected anti-SIRPβ1 antibodies cross-reacted with other isoforms of human SIRPβ1 or with cynomolgus SIRPβ1, recombinant antigens based on human SIRPβ1 isoform 3 sequence and cynomolgus SIRPβ1 isoform 1 sequence were produced by transient transfection in HEK293 cells. Purified, Fc-tagged recombinant proteins were adsorbed onto 96-well plates at 1 μg/mL overnight at 4° C. Plates were subsequently washed with PBS+0.05% Tween-20 and blocked with 1% BSA+PBS for 2 hours at room temperature. Antibodies diluted in blocking buffer at 1 μg/mL were added to wells, serially diluted, and allowed to bind antigen overnight at 4° C. The following day, the primary antibodies were removed and anti-human kappa light chain antibody conjugated to horseradish peroxidase diluted 1:10,000 in blocking buffer were added to wells and incubated for 1 hour at room temperature. Plates were washed with PBS+0.05% Tween-20 and 100 μL of TMB substrate solution was added to wells to generate a colorimetric signal proportional to amount of anti-SIRPβ1 antibody bound to antigen. Once the reaction reached an appropriate color intensity, 100 μL of Stop solution was added to quench the enzyme.
Eight anti-SIRPβ1 antibodies (four parental antibodies and four corresponding affinity matured antibodies) were selected for analysis.

For experiment [15], the target named is T7, human SIRPβ1 isoform 1 on cells. Nature of the experiment: cell binding titration; target not given.
The target of experiment [16] is T10, human SIRPβ1-Fc isoform 3 (Q5TFQ8) (human, UniProt Q5TFQ8 30-371, limits assumed).
T10 construct: Whole entry named; made in HEK293 cells; also called human SIRPβ1 isoform 3
Nature of the experiment: ELISA on plate-coated huSirpB-Fc (Q5TFQ8.1), anti-human kappa-HRP, A450.
Description: Among the multiple SIRPβ1 isoforms catalogued, isoform 1 is the full-length version of the receptor primarily expressed in the periphery. Recombinant antigen based on the sequence of SIRPβ1 isoform 1 was used for selecting anti-SIRPβ1 antibodies from yeast library pools. To ascertain if the selected anti-SIRPβ1 antibodies cross-reacted with other isoforms of human SIRPβ1 or with cynomolgus SIRPβ1, recombinant antigens based on human SIRPβ1 isoform 3 sequence and cynomolgus SIRPβ1 isoform 1 sequence were produced by transient transfection in HEK293 cells. Purified, Fc-tagged recombinant proteins were adsorbed onto 96-well plates at 1 μg/mL overnight at 4° C. Plates were subsequently washed with PBS+0.05% Tween-20 and blocked with 1% BSA+PBS for 2 hours at room temperature. Antibodies diluted in blocking buffer at 1 μg/mL were added to wells, serially diluted, and allowed to bind antigen overnight at 4° C. The following day, the primary antibodies were removed and anti-human kappa light chain antibody conjugated to horseradish peroxidase diluted 1:10,000 in blocking buffer were added to wells and incubated for 1 hour at room temperature. Plates were washed with PBS+0.05% Tween-20 and 100 μL of TMB substrate solution was added to wells to generate a colorimetric signal proportional to amount of anti-SIRPβ1 antibody bound to antigen. […]

Where two headings read alike, the source gives them in different places.

T1 sequence (O00241 30-148 limits assumed): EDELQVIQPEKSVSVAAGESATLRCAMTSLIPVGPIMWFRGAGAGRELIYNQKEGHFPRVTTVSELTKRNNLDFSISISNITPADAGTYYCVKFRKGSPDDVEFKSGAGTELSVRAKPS
T2 sequence (O00241 30-148 limits assumed): as above
T7 sequence (O00241 30-398): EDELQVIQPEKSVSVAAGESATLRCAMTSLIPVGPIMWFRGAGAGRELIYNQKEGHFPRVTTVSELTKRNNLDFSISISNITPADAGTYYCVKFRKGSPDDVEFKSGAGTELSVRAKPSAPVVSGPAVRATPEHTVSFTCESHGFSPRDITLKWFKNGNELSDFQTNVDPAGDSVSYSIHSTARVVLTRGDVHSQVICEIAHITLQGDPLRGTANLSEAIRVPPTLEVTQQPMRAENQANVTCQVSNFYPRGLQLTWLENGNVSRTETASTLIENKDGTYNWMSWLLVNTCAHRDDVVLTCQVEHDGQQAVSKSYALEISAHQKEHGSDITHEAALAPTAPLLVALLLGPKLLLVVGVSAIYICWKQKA
T9 sequence (O00241 30-371 limits assumed, one chain of several): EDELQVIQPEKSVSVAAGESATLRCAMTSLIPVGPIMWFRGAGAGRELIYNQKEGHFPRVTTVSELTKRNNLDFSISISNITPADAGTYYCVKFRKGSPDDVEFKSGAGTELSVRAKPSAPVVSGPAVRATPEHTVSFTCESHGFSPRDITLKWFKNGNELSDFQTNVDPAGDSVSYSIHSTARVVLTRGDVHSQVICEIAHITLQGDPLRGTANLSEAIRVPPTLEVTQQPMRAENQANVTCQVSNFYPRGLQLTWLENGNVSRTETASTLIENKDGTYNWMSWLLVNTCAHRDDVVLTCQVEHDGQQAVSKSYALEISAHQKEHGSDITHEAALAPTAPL
T10 sequence (Q5TFQ8 30-371 limits assumed, one chain of several): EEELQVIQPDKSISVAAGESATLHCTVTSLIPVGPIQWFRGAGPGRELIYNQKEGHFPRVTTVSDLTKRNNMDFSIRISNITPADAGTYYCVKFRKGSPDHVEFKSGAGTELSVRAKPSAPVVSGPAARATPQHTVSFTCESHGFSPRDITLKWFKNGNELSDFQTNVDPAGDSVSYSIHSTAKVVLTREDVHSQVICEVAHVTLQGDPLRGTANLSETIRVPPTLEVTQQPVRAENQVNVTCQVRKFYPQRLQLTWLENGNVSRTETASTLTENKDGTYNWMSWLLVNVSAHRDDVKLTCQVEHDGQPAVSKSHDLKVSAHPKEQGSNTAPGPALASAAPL

B1: SB-8-13 Fab (Fab, V domains shown)
VH: QVQLQESGPGLVKPSETLSLTCAVSGYSISAHYYWGWIRQPPGKGLEWIGSIFHSGHTYYNPSLKSRVTISVDTSKNQFSLKLSSVTAADTAVYYCARGGAMTPAGMDVWGQGTTVTVSS
VL: EIVMTQSPGTLSLSPGERATLSCRASQSVSSSYLAWYQQKPGQAPRLLIYGASNRATGIPDRFSGSGSGTDFTLTISRLEPEDFAVYYCQQVYSSPYTFGGGTKVEIK
notes: Fab by papain digestion
By Kd is commonly meant the equilibrium constant for the complex coming apart. Take B1: the Kd in experiment [1] amounted to 2.85 nM; in the experiment with Human SIRPβ HIS it was 0.063 nM.

B2: SB-8-15 Fab (Fab, V domains shown)
VH: QVQLQESGPGLVKPSETLSLTCAVSGYSISAHYYWGWIRQPPGKGLEWIGSIYQSGHTYYNPSLKSRVTISVDTSKNQFSLKLSSVTAADTAVYYCARGGAMTPAGMDVWGQGTTVTVSS
VL: EIVMTQSPGTLSLSPGERATLSCRASQSVSSSYLAWYQQKPGQAPRLLIYGASNRATGIPDRFSGSGSGTDFTLTISRLEPEDFAVYYCQQVYSSPYTFGGGTKVEIK
notes: Fab by papain digestion
Turning to B2, the Kd in experiment [1] came to 3.73 nM; with Human SIRPβ HIS, 0.048 nM.

B3: SB-8-14 Fab (Fab, V domains shown)
VH: QVQLQESGPGLVKPSETLSLTCAVSGYSISPHYYWGWIRQPPGKGLEWIGSIYHSGHTYYNPSLKSRVTISVDTSKNQFSLKLSSVTAADTAVYYCARGGAMTPAGMDVWGQGTTVTVSS
VL: EIVMTQSPGTLSLSPGERATLSCRASQSVSSSYLAWYQQKPGQAPRLLIYGASNRATGIPDRFSGSGSGTDFTLTISRLEPEDFAVYYCQQVYSSPYTFGGGTKVEIK
notes: Fab by papain digestion
On to B3, for which the equilibrium dissociation constant (Kd) in [1] amounted to 3.25 nM; with Human SIRPβ HIS, 0.053 nM.

B4: SB-8-16 Fab (Fab, V domains shown)
VH: QVQLQESGPGLVKPSETLSLTCAVSGYSISAHYYWGWIRQPPGKGLEWIGSIFHSGHTYYNPSLKSRVTISVDTSKNQFSLKLSSVTAADTAVYYCARAGAMTPAGMDVWGQGTTVTVSS
VL: EIVMTQSPGTLSLSPGERATLSCRASQSVSSSYLAWYQQKPGQAPRLLIYGASNRATGIPDRFSGSGSGTDFTLTISRLEPEDFAVYYCQQVYSSPYTFGGGTKVEIK
notes: Fab by papain digestion
As for B4, the results for the Kd (in [1]; with Human SIRPβ HIS) were 2.32 nM and 0.055 nM, respectively.

B5: SB-40 (antibody, V domains shown)
VH: QVQLVQSGAEVKKPGASVKVSCKASGYTFTSYYMSWVRQAPGQGLEWMGIINPSGGSTSYAQKFQGRVTMTRDTSTSTVYMELSSLRSEDTAVYYCARDTGEYSYSPHGMDVWGQGTTVTVSS
VL: EIVLTQSPATLSLSPGERATLSCRASQSVSSYLAWYQQKPGQAPRLLIYDSSNRATGIPARFSGSGSGTDFTLTISSLEPEDFAVYYCQQRDEHPPWTFGGGTKVEIK
notes: IgG; also called SB-40 (p)
By EC50 is commonly meant the concentration giving half of the maximal effect. High values mean a less potent agent, low ones a more potent agent. With B5, the binding result in the experiment with mouse SIRPα D1-Fc is reported as “no binding (tested: 100 nM)”; with human SIRPα on cells [2], “no binding (tested: 1 ug/ml)”; in [3] it was “no binding (tested: 1 ug/ml)”; with mouse SIRPα on cells [4], “no binding (tested: 1 ug/ml)”; in [13], “no binding (tested: 100 nM)”; in experiment [16] it was “no binding (tested: 1 ug/mL)”. In addition, the FOB in experiment [5] is 7 fold over background; with human SIRPα on cells [6] it was 2.5 fold over background; in [7] it was 1.1 fold over background; with mouse SIRPα on cells [8], 1.2 fold over background; in experiment [9] it was 2 fold over background; in the experiment with human SIRPα on cells [10], 1 fold over background. In experiment [11], this molecule registered an FOB of 1 fold over background. Further, the Kd in experiment [12] is 9.64 nM. For the same molecule, the values for the EC50 in [14] and in [15] were 0.04 nM and 0.707 nM, respectively.
